Patent WO2024071112A1 (dated 2024)

Target: T1, human plasminogen (human, UniProt P00747 20-810, limits assumed)
T1 construct: also called Plg
Test: ELISA, plate-coated human plasminogen, His-tagged VK and VH peptides bridged and detected by rabbit anti-His tag IgG and HRP anti-rabbit IgG, A450

T1 sequence (P00747 20-810 limits assumed): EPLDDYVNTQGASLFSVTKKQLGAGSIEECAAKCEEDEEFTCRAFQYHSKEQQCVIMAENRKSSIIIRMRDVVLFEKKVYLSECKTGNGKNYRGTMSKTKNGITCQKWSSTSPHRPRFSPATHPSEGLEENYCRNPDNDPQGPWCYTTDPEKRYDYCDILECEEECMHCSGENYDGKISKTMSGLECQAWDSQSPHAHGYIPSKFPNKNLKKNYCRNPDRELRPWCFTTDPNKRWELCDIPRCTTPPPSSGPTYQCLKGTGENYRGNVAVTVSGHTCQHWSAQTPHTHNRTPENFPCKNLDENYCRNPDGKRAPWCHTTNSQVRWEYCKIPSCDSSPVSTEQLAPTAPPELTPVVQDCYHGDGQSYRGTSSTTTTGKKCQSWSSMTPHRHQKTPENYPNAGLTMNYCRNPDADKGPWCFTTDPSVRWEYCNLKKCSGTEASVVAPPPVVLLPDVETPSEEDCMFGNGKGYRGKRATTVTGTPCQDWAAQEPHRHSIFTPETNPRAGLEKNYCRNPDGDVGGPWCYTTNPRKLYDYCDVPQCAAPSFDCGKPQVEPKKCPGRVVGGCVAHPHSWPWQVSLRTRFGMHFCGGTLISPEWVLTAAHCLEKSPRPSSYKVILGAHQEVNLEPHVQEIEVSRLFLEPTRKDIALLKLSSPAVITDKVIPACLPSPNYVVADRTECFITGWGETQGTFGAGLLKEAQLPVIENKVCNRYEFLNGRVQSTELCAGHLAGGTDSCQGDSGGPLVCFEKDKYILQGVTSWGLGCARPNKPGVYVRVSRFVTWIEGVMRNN

- binding result: binds
B1: VKc4+VHc1 (His-tagged VKc4 domain peptide combined with His-tagged VHc1 domain peptide) (other)
VL: RSDILMTQSPSSMSVSLGDTVSITCHASQGISSNIGWLQQKPGKSFKGLIYHGTNLEDGVPSRFSGSGSGADYSLTITSLESEDFADYYCVQYAQFPWTFGGGTKLEIKDIPWQGLNDIFEAQKIEWHGSHHHHHH
VH: RSEVQLQQSGAELVKPGASVKLSCTASGFNIKDYYMHWVKQRTEQGLEWIGRIDPEDGETKYAPKFQGKATITADTSSNTAYLQLSSLTSEDTAVYYCAPLLGREDYWGQGTTLTVSSDIPWQGLNDIFEAQKIEWHGSHHHHHH
notes: Two separate His-tagged mouse variable domain peptides made in E. coli (crude lysis supernatant), not covalently linked; in the ELISA they are bridged by polyclonal rabbit anti-His tag IgG; also called Kc4Hc1
